Changes are numbered by the printed parent chain.
T1: GST-SAPK10 (rice (Oryza sativa L. ssp. japonica cv …, UniProt Q75H77 1-362))
T1 construct: SAPK10 (SnRK2 type kinase), rice; full-length CDS in pGEX-4T-1; Purified GST-SAPK10 gave a phosphorylation band with Phos-tag (autophosphorylation, not detected in S177A); source: Transetta (DE3) cells, purified (GST-Sefinose Kit)
T1 sequence (looked up): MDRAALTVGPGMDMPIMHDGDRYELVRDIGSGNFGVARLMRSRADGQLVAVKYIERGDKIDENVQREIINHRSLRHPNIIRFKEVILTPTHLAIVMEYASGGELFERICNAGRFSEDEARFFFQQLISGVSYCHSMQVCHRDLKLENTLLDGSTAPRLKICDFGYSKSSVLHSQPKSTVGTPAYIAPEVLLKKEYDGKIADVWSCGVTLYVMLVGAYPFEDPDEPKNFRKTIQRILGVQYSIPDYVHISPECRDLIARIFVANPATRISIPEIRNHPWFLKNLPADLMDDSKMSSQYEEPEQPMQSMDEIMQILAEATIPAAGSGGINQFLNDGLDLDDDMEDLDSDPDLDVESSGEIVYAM

B1: His-SAPK10 (enzyme, UniProt Q75H77 1-362, looked up)
chain: T1 sequence (looked up)
notes: SAPK10 (SnRK2 type kinase), rice; full-length CDS in pET28a; source: Transetta (DE3) cells, purified (6 x His-Tagged Protein Purification Kit)
B2: His-SAPK10^S177A (enzyme, UniProt Q75H77 1-362, looked up)
chain: T1 sequence (looked up) with S177A
notes: SAPK10, rice, Ser177 replaced by alanine; full-length CDS in pET28a; source: Transetta (DE3) cells, purified (6 x His-Tagged Protein Purification Kit)

Target: T1, GST-SAPK10
Experiment: pull-down; GST fusion on glutathione high-capacity magnetic agarose beads; 50 mM Tris-HCl pH 7.5, 5% glycerol, 1 mM EDTA, 1 mM DTT, 1 mM PMSF, 0.01% Nonidet P-40, 150 mM KCl; 4°C, 2 h; blots with anti-His and anti-GST
Conditions: both partners purified

| Binder | binding result |
| --- | --- |
| B1 | binds |
| B2 | binds |

— publication PMC7689938, “Abscisic acid promotes jasmonic acid biosynthesis via a ‘SAPK10‐bZIP72‐AOC’ pathway to synergistically inhibit seed germination in rice (Oryza sativa)” (The New Phytologist, 2020)
